# From the supplement of paper PMC9170038
# Tested on: K4 kissing-loop RNA reporter
# Assay: apparent KD of K4 kissing-loop reporter; higher = weaker reporter binding
# Details: Eterna round: R107; input ligand: theophylline 20 uM
# Method: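 RNA-MaP round R107: designed RNA switches with theophylline, tryptophan, arginine or FMN aptamers are transcribed on-chip within common flanks. They are titrated with a labelled K4 kissing-loop RNA reporter in RNA-MaP buffer (100 mM Tris pH 7.5, 80 mM KCl, 4 mM MgCl2), without ligand or with the indicated ligand. Median apparent KD per design.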
# 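Also: bound reporter read as fluorescence of individual clusters on recovered sequencing chips by microscopy, with normalized cluster intensities fitted with a binding model.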
row,Sequence,apparent KD of K4 kissing-loop reporter [µM]
1,UGAGUUUGAGUGAUGUUCAGGCAUUGGUACGAGGAUAUCGAGGAGUUGAGAAGGCGUACUGCUCAACUUUGUAUGAAUACAUACA [FMN A Ex t2b],0.117
2,AUUUUUUUGUCAGGAUAUUAGUGUUGGUUUGGUUUGUUAGUGAUGUUGAUAUUUGUUUUAUGUAUUUAAGAAGGGAUUUAGCGGU [wxooemullin],0.458
3,UGAUACCAGACUGAUACCAGCCAGUGAUGUUGGCUAAUCCGAGAAGGAGUCAAAGACUCCGGCCCUUGGCAGCAGUCUGGUAUCU [TheoBX 4 #SwitchBubble #StaticStem],0.128
4,GAACGGAGUGAUGUUCCGUUGACGAUCCUACGAGGACCGGUACGGCCGCCACUCGUAUUGCAGUGAUGUUGCAACCAGCCGUACU [Exclusion Tryptophan A GF 10],0.106
5,UGUCAUUGGUCGGCCGCCACUAGGACCGGGAUUUUUCUAGUGAUGUUAGUUUGGUCGGCCGCCACUAGGACCGGGACCGAUGACU [KL-SSTryp-B13 #DoubleAptamer],0.453
6,CCACCAAGCACGGCCGCCACUAAAUCUGCAAGUAACCUAAAGUGAUGUUUUAUCUUGCGUCAGACUAGGACCGGGUGUCAAGUUA [theeternabot_sameState_KL_Trp_B_45],0.704
7,UUAGGAGUGGGAGGAUAUCCUGGUGUGGGUGAUGUUAGUGAUGUUGAAAGUGUAGUGAUGUUGUGCGGAGAAGGUCCAGUGUUGA [BDazzled - #10 - Exc. FMN B],0.646
8,AAUACAGUGUCGGCCGCCACUGUAACAUGCCAUGAGACAUGAGACAUGAGUGAUGUUCAUGUAGACAGGACCGGGACUCAUGUAU [KL-SSTryp-B3 #analogue],0.37
9,GAAAGAAAGUAUGAUACCAGACACCCGAGUGAUGUUCGGAGCAGUGUGAUGUUCUUUUAAGUCCCUUGGCAGCAUAAAAGAAAAG [whbob_SS_Theo_B_sa84],0.101
10,UAUUUAAUUUUUAAUUUUUAAAUUGCUGAUACCAGAGCCAAUUGGCUCCCUUGGCAGCGGAUCGAGUGAUGUUCGUAUAAUUUAA [AK1 SS Theophylline A],0.0622
11,CUGGGUUGACGAAAAGUCAACAAAAGAGAAGGAGCGCACGAAAGUGCAGGUAGGUCGCUCAAUCCAGUGAUGUUGGGUCGUCCAG [#OpenEnded 11 #K4Late],0.285

# Same assay, conditions: Eterna round: R107; input ligand: tryptophan 2.4 mM
row,Sequence,apparent KD of K4 kissing-loop reporter [µM]
1,AGUGCACUGUCAGGAUAUAUACAGUGAUGUUGUGUAUGUCAGCAAGUCAAAGACUUGCUAUUUUGUGUAGAAGGGACUGUGUACA [whbob_Ex_FMNB__2th221],0.177
2,GCCGUAGAUUGAAGGAGCGGCAUUAACGAUGUUCUGGUAGUGAUGUUACCUCAGCAGACAUGCCAGGUAGGUCGCAAUCUACGGC,0.077
3,AGUCCACUCUAAAGAGUGGACCUAAGGGAUACCAGUGAUGUUGGUCACCCUUGGCAGCCCUCUGUCAUCGAUAAAGAUGGCAGGA,0.119
4,AGGCGGCAAGAUUGAUUGGAAAGUAAUCGACGAGGACCGGUACGGCCGCCACUCGAACACCAGUGAUGUUGGUCUGGCUUAAGCC [Exclusion Tryptophan A GF 20],0.363
5,ACGCUGUGAAUAACACAGCGAAUAAAUUCGCGAGGACCGGUACGGCCGCCACUCGCUAACUGCGAGUGAUGUUCGAUAAUAAAAU [Mat - Mod of OpenEnded 3 - D13],0.0911
6,UGUCAUUGGUCGGCCGCCACUUCAUAAAGAGUGAUGUUCUAAAAGACGGAUCGAAAGAUCUGUCGAAGGACCGGGACCGAUGACU [TrypBS 18 #SwitchBubble #StaticStem],0.279
7,UGUCAUGGAAACAUGAACGUUAAAAUAAAUCGAGGACCGGUACGGCCGCCACUCGUAUAGCGGUCAGUGAUGUUGACUGUAAUAA [KL-SSTryp-A form2 sub10],0.0943
8,AAUUUAGUGACGGCCGCCACUAUGGUGAUUUAUUUGUUUGAGUGAUGUUUUGAUGUUUGAUUUUGUAGGACCGGGUUAGGUGAUG [aaacmullin],0.279
9,UGUACCGAGGCAGGAUAUGUCGUCGAAAGACGAAAUGGAGUGAUGUUCCUUAAACUGCGAAAGCAGACAGAAGGGUCUUGGUACU [FmnBS 29 G10+U76],0.171
10,UGUAUGUGAUUUGAUACCAGACAAGCAGGUGUGACAAGAGUGAUGUUCUUGAUGGUUUGGGUCCCUUGGCAGCAAAUCGCAUACU [KL-SSTheoB16],0.154
11,CGAAAUAGAACGGCCGCCACUGUAAGUCCUGACAGUAAGUGAUGUUUGAAAGAUUCGGGUAUUCGCAGGACCGGGUUCGUCAUAA [theeternabot_sameState_KL_Trp_B_13],0.754
12,AUGUUGAGCGGAAGGAGCGGCUGAGCCAGUGAUGUUGGUUAAUCCAAGUGAUGUUGGAAAAGCCAGGUAGGUCGCCGUUUUACGU [whbob_SS_Arginine_B_2t145],0.887
13,CGCAGUGAUGUUGCUAUUAUUCUUGAUUAACGAGGACCGGUACGGCCGCCACUCGAUUUCUAUCUGAUCCAGUGUUUUGUUGAGU [#22 K4 Tryptophan A Exclusion],0.182
14,CCGCCGGUCGGAAGGAGCGCACGCCAGAGUGAUGUUCUGGCGCGGGCAUUUUGUGCCCGCGUGCAGGUAGGUCGCCGAUUCUGGC [Quxeorti],0.498
15,GUAUCAGUGAUGUUGAUAGGCGAGCGGGAUACCAGCCAAGACUCAGGCCCUUGGCAGCCCACAUAUCCCACGUAGAUAGUAGCUC [Same State - Theophylline A (Freestyle 16)],0.123
16,UACCCGUGCUACUCCAUCCAUGCCACACCGCGAGGACCGGUACGGCCGCCACUCGUCGGAAAGUGAUGUUUUCAAACAAAGUUGC,0.0769
17,AAGAAGGUCAAAGACCUUCGUGCUCGUGAUACCAGUCGCGAAAGCGGCCCUUGGCAGCACGGCAGUGAUGUUGCCAAGAGCACAA [#13 K4 Theophylline A Same State],0.211
18,AUAGACUUGCAGUGAUGUUGCAAGUGAGACUAGGAUAUCAGGAAGCUGAGAAGGAGUCAUCUCCUUCAGACAUCACUAUGAAGGA [whbob_SS_FMNA__2th180],0.221
19,CUGUCCUACGAAGGAUAUGCUGAUGGGAUCAAACAGUGAUGUUGUUAUGAACUUAGGCUUAUGUGCGCAGAAGGUCGUGGCGACG [theeternabot_sameState_KL_FMN_B_42],0.546
20,UCGGCAAAGUCGGCCGCCACUCCGGGCCCUAUAAAUGGGCGCAGUGAUGUUGCGGCUAGGCCUCUGAGGACCGGGACUUUGUAGA [Gebive],0.204
21,UUUAUAUAGUCGGCCGCCACUGAUUUUUUUAUAUGUUUAUGUUUAUACGAGUGAUGUUCGAUAUACAGGACCGGGACUUUUGUUA [JR_SSTryptoB_Sub018],0.18
22,CGGAUGUAGUGAUGUUAUAUUAGAUGUAGACGAGGACCGGUACGGCCGCCACUCGAAACGGCUGCUAGCGCGUUGCGAGGUGUGC [ExTryptoA.Ck],0.456

row,Sequence,apparent KD of K4 kissing-loop reporter [µM]
1,AGUAAUCUCACGGCCGCCACUGUUUAUUGUUUUUAUAGUUAUAAAUCUUGCCAGUGAUGUUGGUACAGGACCGGGUGAGUUAAUA [#25 K4 Tryptophan B Same State],0.316
2,UGACUGGACUGAAGGAGCGCGCGAGACAAAGUCUCGAACUCGUAGUGAUGUUAGGAAAUAACGCAGGUAGGUCGCAGUCUAGUCU,0.512
3,AAAUUCUUUUUUUUAUUUAACUUUUCAGAAGGAGCGUGGUAGUUCACAGGUAGGUCGCUGAAUUUUGGACUAGUGAUGUUAGUUA [JR_SSArginiA_Sub006],0.158
4,GGAGGAGAAUAUGAUACCAGCAGAGAGAGAGAGGAAGUAUAGUGAUGUUAUAUGAGAGAAUGCCCUUGGCAGCAUAAGAAGAAGG [SSTheophylB.A],0.105
5,UAGUCCUAGUGAUGGUUAUCACGUGGUGGGCGAGGACCGGUACGGCCGCCACUCGACUUUGCAGUGAUGUUGCAAACCGGACAAU [Exclusion - Tryptophan A (Freestyle 18)],0.237
6,GUGCAGUGAUGUUGCACGAGGAAAGACGAUACCAGCCGUAAAUAAGGCCCUUGGCAGCGUAGGCUAGCAUAAGGUAUGCUAGUCC [Atesermace],0.1
7,GUAGGAUGAGGAGGAGGAUGAAUUACUGAAGGAGCGCAUAGAAAUGCAGGUAGGUCGCGGUAAAGAAGUAUAGUGAUGUUAUAUA [SSArgA.F],0.292
8,CCCAAAAUAUGCAGUGAUGUUGCAACCGAUACCAGUAUCGAAAGAUACCCUUGGCAGCGGAAAACCGCUACGUAAUUUAAAAGGG [Ex Theophylline A K4 17],0.254
9,AAUAAAAUCACGGCCGCCACUGGUACUAGUAUUAGCAGUGAUGUUGCUAUGUAUAAUUUAUUAAAUAGGACCGGGUGAAUAUUUA [#27 K4 Tryptophan B Exclusion],0.208
10,GGUAGCAUGGCGGCCGCCACUAAUACUUCGUAGCCUGUAGCCGGCUUCGUAGAGUGAUGUUCUAUUAGGACCGGGCCAUGCUACC,0.493
11,UGAGUUUGAGUGAUGUUCAGGCAUUGGUACGAGGAUAUCGAGGAGUUGAGAAGGCGUACUGCUCAACUUUGUAUGAAUACAUACA [FMN A Ex t2b],0.103
12,AUUUUUUUGUCAGGAUAUUAGUGUUGGUUUGGUUUGUUAGUGAUGUUGAUAUUUGUUUUAUGUAUUUAAGAAGGGAUUUAGCGGU [wxooemullin],0.293
13,UGAUACCAGACUGAUACCAGCCAGUGAUGUUGGCUAAUCCGAGAAGGAGUCAAAGACUCCGGCCCUUGGCAGCAGUCUGGUAUCU [TheoBX 4 #SwitchBubble #StaticStem],0.121
14,GAACGGAGUGAUGUUCCGUUGACGAUCCUACGAGGACCGGUACGGCCGCCACUCGUAUUGCAGUGAUGUUGCAACCAGCCGUACU [Exclusion Tryptophan A GF 10],0.0879
15,UGUCAUUGGUCGGCCGCCACUAGGACCGGGAUUUUUCUAGUGAUGUUAGUUUGGUCGGCCGCCACUAGGACCGGGACCGAUGACU [KL-SSTryp-B13 #DoubleAptamer],0.0868
16,CCACCAAGCACGGCCGCCACUAAAUCUGCAAGUAACCUAAAGUGAUGUUUUAUCUUGCGUCAGACUAGGACCGGGUGUCAAGUUA [theeternabot_sameState_KL_Trp_B_45],0.755
17,UUAGGAGUGGGAGGAUAUCCUGGUGUGGGUGAUGUUAGUGAUGUUGAAAGUGUAGUGAUGUUGUGCGGAGAAGGUCCAGUGUUGA [BDazzled - #10 - Exc. FMN B],0.292
18,AAUACAGUGUCGGCCGCCACUGUAACAUGCCAUGAGACAUGAGACAUGAGUGAUGUUCAUGUAGACAGGACCGGGACUCAUGUAU [KL-SSTryp-B3 #analogue],0.227
19,GAAAGAAAGUAUGAUACCAGACACCCGAGUGAUGUUCGGAGCAGUGUGAUGUUCUUUUAAGUCCCUUGGCAGCAUAAAAGAAAAG [whbob_SS_Theo_B_sa84],0.0917
20,UAUUUAAUUUUUAAUUUUUAAAUUGCUGAUACCAGAGCCAAUUGGCUCCCUUGGCAGCGGAUCGAGUGAUGUUCGUAUAAUUUAA [AK1 SS Theophylline A],0.0336
21,CUGGGUUGACGAAAAGUCAACAAAAGAGAAGGAGCGCACGAAAGUGCAGGUAGGUCGCUCAAUCCAGUGAUGUUGGGUCGUCCAG [#OpenEnded 11 #K4Late],0.222
